Results reported in article PMC4041426, “Structural basis for binding the TREX2 complex to nuclear pores, GAL1 localisation and mRNA export” (Nucleic Acids Research, 2014).

B2: Sac3^757–787 (domain or fragment, S. cerevisiae, UniProt P46674 757-787, looked up)
chain: RKDFIDTMTRELYDAFLHERLYLIYMDSRAE
notes: source: E. coli BL21 (DE3) CodonPlus RIL, purified in complex with Sus1B
B5: Sac3^757–787:Sus1B (complex, S. cerevisiae)
chain 1: RKDFIDTMTRELYDAFLHERLYLIYMDSRAE
chain 2: MTMDTAQLKSQIQQYLVESGNYELISNELKARLLQEGWVDKVKDLTKSEMNINESTNFTQILSTVEPKALEMVSDSTRETVLKQIREFLEEIVDTQ
notes: Sus1, S. cerevisiae (the Sus1B chain); also called B sub-complex; Sac3:Sus1B; copies: 1 + 1
B6: GST-Nup1^191–385 (domain or fragment, S. cerevisiae, UniProt P20676 191-385, looked up)
chain: KNRSNRKRFHSQSKGTVWSANFEYDLSEYDAIQKKDNKDKEGNAGGDQKTSENRNNIKSSISNGNLATGPNLTSEIEDLRADINSNRLSNPQKNLLLKGPASTVAKTAPIQESFVPNSERSGTPTLKKNIEPKKDKESIVLPTVGFDFIKDNETPSKKTSPKATSSAGAVFKSSVEMGKTDKSTKTAEAPTLSFN
notes: source: E. coli BL21 (DE3) CodonPlus RIL; immobilised on Glutathione Sepharose 4B from clarified lysate; not shown: GST, N-terminal, kept

Tests used:
Conditions in all cases: both partners purified
[1] = molecular target: B2; experiment: crystal structure; Nup1^322–355 mixed 6:1 with Sac3^757–787:Sus1B (15 mg/ml); 2.2–2.35 M ammonium sulphate, 100 mM Na citrate pH 5.6; P3_(2)21, 3.0 Å
[2] = molecular target: B5; experiment: as above
[3] = molecular target: T1, Sus1 (S. cerevisiae, UniProt Q6WNK7 1-96); experiment: as above
T1 construct: Sus1, S. cerevisiae; also called Sus1A; Sus1B; source: E. coli BL21 (DE3) CodonPlus RIL; in clarified lysate (assembly pull-down), purified within Sac3 complexes (crystals)
T1 sequence: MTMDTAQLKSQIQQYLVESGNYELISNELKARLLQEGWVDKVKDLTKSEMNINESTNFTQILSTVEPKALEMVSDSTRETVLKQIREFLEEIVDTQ

[4] = molecular target: T2, Sac3^753–805:Sus1B:Cdc31 complex (S. cerevisiae, UniProt P46674 753-805; Q6WNK7 1-96; P06704 1-161); experiment: crystal structure; Nup1^316–340 mixed 7:1 with Sac3^753–805:Sus1B:Cdc31 (14.6 mg/ml); 16% PEG600, 2% PEG 1K, 10% glycerol, 100 mM MES pH 6.0; P2_(1), 2.6 Å
T2 construct: Sac3, S. cerevisiae, residues 753–805 (BC); Sus1, S. cerevisiae (the Sus1B chain); Cdc31, S. cerevisiae; also called BC sub-complex; source: E. coli BL21 (DE3) CodonPlus RIL; cells with co-expressed Sac3:Cdc31 mixed with cells with Sus1; copies: 1 + 1 + 1
T2 sequence 1: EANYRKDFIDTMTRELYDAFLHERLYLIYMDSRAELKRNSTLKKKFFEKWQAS
T2 sequence 2: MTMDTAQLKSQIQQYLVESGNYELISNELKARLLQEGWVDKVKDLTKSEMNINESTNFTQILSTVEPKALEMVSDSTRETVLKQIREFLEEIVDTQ
T2 sequence 3: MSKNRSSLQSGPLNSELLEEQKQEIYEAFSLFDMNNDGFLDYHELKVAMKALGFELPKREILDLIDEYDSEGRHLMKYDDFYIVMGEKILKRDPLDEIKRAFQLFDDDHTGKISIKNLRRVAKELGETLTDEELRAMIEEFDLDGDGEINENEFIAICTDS

[5] = molecular target: T3, Cdc31 (S. cerevisiae, UniProt P06704 1-161); experiment: as above
T3 construct: Cdc31, S. cerevisiae; source: E. coli BL21 (DE3) CodonPlus RIL, co-expressed with Sac3 fragments; in clarified lysate (assembly pull-down), purified within Sac3 complexes (crystals)
T3 sequence: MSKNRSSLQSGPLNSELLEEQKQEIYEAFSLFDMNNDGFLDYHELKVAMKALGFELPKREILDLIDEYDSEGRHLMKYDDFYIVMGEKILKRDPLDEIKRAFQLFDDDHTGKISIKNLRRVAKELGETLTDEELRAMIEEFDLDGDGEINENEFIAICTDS

[6] = molecular target: T1, Sus1; experiment: as above
[7] = molecular target: B6; experiment: pull-down; GST-Nup fusion (or GST) immobilised on Glutathione Sepharose 4B from clarified bacterial lysate and washed with PBS-DTT; purified Sac3^CID complex, sub-complex, mutant variant or Kap95 added at 15.4 μM; 4°C, 1 h; SDS-PAGE and Coomassie staining
[8] = molecular target: T2, Sac3^753–805:Sus1B:Cdc31 complex; experiment: as above
[9] = molecular target: T4, Kap95 (yeast, UniProt Q06142 1-861); experiment: as above
T4 construct: Kap95 (protein import karyopherin), yeast; also called karyopherin Kap95; yeast Kap95
T4 sequence (looked up): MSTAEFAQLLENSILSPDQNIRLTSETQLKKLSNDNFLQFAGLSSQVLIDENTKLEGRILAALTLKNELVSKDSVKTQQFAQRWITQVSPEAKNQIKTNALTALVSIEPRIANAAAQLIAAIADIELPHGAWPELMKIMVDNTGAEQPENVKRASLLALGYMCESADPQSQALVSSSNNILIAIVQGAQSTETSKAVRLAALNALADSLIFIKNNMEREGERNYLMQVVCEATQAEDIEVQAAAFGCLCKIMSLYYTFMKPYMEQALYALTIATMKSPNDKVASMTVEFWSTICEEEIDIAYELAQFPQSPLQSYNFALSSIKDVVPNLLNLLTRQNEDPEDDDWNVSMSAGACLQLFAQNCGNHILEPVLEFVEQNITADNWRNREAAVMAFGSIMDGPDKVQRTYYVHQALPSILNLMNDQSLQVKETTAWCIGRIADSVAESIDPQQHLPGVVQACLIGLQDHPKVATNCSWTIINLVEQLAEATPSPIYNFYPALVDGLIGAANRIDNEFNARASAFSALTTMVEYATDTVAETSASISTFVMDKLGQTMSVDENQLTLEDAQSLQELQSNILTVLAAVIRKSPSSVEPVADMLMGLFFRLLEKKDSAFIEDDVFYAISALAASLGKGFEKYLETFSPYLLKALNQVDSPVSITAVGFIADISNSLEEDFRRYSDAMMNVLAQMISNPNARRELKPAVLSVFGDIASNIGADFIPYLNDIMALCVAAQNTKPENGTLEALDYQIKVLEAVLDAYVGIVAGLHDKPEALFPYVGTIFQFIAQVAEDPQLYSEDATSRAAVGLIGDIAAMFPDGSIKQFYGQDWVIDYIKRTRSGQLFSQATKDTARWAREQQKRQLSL

B1: Nup1^322–355 (domain or fragment, S. cerevisiae, UniProt P20676 322-355, looked up)
chain: PKKDKESIVLPTVGFDFIKDNETPSKKTSPKATS
notes: Residues 326–340 were built in the model; also called Nup1 fragment; source: E. coli BL21 (DE3) CodonPlus RIL, purified (Glutathione Sepharose, TEV release, Superdex75); not shown: GST, N-terminal, cleaved
B1: binds [1]; binds [2]; binds [3].

B2: binds [3].

B3: Nup1^316–340 (domain or fragment, S. cerevisiae, UniProt P20676 316-340, looked up)
chain: LKKNIEPKKDKESIVLPTVGFDFIK
notes: Nup1, S. cerevisiae, residues 316–340; Residues 330–340 were built in the model; also called Nup1 fragment; source: E. coli BL21 (DE3) CodonPlus RIL, purified (Glutathione Sepharose, TEV release, Superdex75); not shown: GST, N-terminal, cleaved
B3: binds [4].

B4: Sac3^753–805 (domain or fragment, S. cerevisiae, UniProt P46674 753-805, looked up)
chain: EANYRKDFIDTMTRELYDAFLHERLYLIYMDSRAELKRNSTLKKKFFEKWQAS
notes: Sac3, S. cerevisiae, residues 753–805 (BC); also called BC fragment; source: E. coli BL21 (DE3) CodonPlus RIL, purified in complex with Sus1B and Cdc31
B4: binds [5]; binds [6].

B5: binds [7].

B6: binds [8].

B7: GST-Nup1^371–500 (domain or fragment, S. cerevisiae, UniProt P20676 371-500, looked up)
chain: DKSTKTAEAPTLSFNFSQKANKTKAVDNTVPSTTLFNFGGKSDTVTSASQPFKFGKTSEKSENHTESDAPPKSTAPIFSFGKQEENGDEGDDENEPKRKRRLPVSEDTNTKPLFDFGKTGDQKETKKGES
notes: as for B6
B7: binds [9].
